# Patent US20040185507A1
# Legend:
# [1] = biological target: αvβ3 integrin on human cells (human) (UniProt P06756); assay: cell-based or functional assay
# [2] = biological target: αvβ3 integrin on human cells (human) (UniProt P06756); assay: radiolabeled antibody binding on A375S2 cells (n = 2)
# [3] = biological target: alpha V integrins (αvβ3 and αvβ5) on human cells (human) (UniProt P06756); assay: cell-based or functional assay
# [4] = biological target: αvβ5 integrin on human cells (human) (UniProt P06756); assay: cell-based or functional assay
# Sequence of αvβ5 integrin on human cells (human) (P06756 31-1048, chain 1 of 2): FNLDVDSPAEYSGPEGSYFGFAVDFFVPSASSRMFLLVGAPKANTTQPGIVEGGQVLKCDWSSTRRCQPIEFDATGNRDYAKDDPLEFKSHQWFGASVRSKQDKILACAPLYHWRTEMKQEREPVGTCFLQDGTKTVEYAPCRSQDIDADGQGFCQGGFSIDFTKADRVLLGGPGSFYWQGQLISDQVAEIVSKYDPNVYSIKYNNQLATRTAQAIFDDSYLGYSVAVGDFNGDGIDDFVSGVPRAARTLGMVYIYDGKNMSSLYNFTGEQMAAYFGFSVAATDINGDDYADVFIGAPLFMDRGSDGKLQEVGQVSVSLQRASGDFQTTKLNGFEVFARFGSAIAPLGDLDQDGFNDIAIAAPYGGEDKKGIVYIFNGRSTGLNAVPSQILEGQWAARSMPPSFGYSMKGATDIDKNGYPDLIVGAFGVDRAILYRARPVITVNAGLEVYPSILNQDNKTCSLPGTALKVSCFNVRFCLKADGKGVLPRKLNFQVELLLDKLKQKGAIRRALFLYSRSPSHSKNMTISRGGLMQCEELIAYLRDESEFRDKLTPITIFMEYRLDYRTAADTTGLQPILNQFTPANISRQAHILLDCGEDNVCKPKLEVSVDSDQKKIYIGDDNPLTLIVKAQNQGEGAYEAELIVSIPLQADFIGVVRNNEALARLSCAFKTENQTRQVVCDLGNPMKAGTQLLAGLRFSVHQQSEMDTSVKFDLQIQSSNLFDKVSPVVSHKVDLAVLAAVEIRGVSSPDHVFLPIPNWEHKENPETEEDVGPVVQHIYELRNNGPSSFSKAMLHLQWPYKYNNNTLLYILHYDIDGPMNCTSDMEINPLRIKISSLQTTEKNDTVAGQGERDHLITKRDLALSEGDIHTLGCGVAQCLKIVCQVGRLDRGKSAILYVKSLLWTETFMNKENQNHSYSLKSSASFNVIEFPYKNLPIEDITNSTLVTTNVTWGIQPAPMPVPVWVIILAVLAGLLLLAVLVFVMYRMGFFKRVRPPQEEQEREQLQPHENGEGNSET
# Sequence of αvβ5 integrin on human cells (human) (P18084 24-799, chain 2 of 2, further chain): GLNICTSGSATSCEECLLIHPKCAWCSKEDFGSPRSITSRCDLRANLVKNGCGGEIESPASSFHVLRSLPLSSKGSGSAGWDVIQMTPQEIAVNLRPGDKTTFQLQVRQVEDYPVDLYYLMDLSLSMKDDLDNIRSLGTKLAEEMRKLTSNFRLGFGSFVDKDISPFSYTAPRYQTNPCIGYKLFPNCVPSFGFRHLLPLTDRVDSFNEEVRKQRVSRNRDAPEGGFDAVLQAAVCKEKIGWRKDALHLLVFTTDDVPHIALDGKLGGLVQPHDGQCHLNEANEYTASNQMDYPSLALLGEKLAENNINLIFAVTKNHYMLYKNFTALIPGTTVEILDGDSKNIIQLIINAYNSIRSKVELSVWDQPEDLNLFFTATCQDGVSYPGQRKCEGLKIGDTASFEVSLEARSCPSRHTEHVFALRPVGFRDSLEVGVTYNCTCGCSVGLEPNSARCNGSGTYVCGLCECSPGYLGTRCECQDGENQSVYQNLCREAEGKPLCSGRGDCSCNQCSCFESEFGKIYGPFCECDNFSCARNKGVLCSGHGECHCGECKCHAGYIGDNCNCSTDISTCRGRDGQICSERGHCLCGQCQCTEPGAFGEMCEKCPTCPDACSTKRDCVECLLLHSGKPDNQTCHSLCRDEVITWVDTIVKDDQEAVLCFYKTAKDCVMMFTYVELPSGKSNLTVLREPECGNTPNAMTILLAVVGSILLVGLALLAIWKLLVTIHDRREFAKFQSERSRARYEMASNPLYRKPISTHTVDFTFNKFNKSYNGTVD
# [5] = biological target: αvβ5 integrin on human cells (human) (UniProt P06756); assay: radiolabeled antibody binding on M21 cells (n = 2)
# [6] = biological target: αvβ5 integrin on human cells (human) (UniProt P06756); assay: radiolabeled antibody binding on HT-29 cells (n = 1)
# [7] = biological target: αvβ5 integrin on human cells (human) (UniProt P06756); assay: radiolabeled antibody binding on A375S2 cells (n = 4)
# [8] = biological target: alpha V integrins (αvβ3 and αvβ5) on human cells (human) (UniProt P06756); assay: 125-I antibody saturation binding on M21 cells (n = 4)
# [9] = biological target: alpha V integrins (αvβ3 and αvβ5) on human cells (human) (UniProt P06756); assay: 125-I antibody saturation binding on M21 cells (n = 8)
# [10] = biological target: alpha V integrins (αvβ3 and αvβ5) on human cells (human) (UniProt P06756); assay: 125-I antibody saturation binding on A375S2 cells (n = 5)
# [11] = biological target: alpha V integrins (αvβ3 and αvβ5) on human cells (human) (UniProt P06756); assay: 125-I antibody saturation binding on A375S2 cells (n = 7)
# [12] = biological target: alpha V integrins (αvβ3 and αvβ5) on human cells (human) (UniProt P06756); assay: 125-I antibody binding on A375S2 and M21 cells, rounded summary
# [13] = biological target: alpha V integrins (αvβ3 and αvβ5) on human cells (human) (UniProt P06756); assay: flow cytometry on M21 cells; labeled CNTO95 2 µg/mL; no competitor (saline)
# [14] = biological target: alpha V integrins (αvβ3 and αvβ5) on human cells (human) (UniProt P06756); assay: flow cytometry on M21 cells; labeled CNTO95 20 µg/mL; no competitor (saline)
# [15] = biological target: alpha V integrins (αvβ3 and αvβ5) on human cells (human) (UniProt P06756); assay: flow cytometry on M21 cells; labeled CNTO95 2 µg/mL; competitor m7E3 IgG 20 µg/mL; parameters: % Positive: reference not given here
# [16] = biological target: alpha V integrins (αvβ3 and αvβ5) on human cells (human) (UniProt P06756); assay: flow cytometry on M21 cells; labeled CNTO95 20 µg/mL; competitor m7E3 IgG 20 µg/mL
# [17] = biological target: alpha V integrins (αvβ3 and αvβ5) on human cells (human) (UniProt P06756); assay: flow cytometry on M21 cells; labeled CNTO95 2 µg/mL; competitor anti-β3 (AMAC) 20 µg/mL
# [18] = biological target: alpha V integrins (αvβ3 and αvβ5) on human cells (human) (UniProt P06756); assay: flow cytometry on M21 cells; labeled CNTO95 20 µg/mL; competitor anti-β3 (AMAC) 20 µg/mL
# [19] = biological target: alpha V integrins (αvβ3 and αvβ5) on human cells (human) (UniProt P06756); assay: flow cytometry on M21 cells; labeled CNTO95 2 µg/mL; competitor P1F6 (anti-αvβ5) 20 µg/mL; parameters: % Positive: reference not given here
# [20] = biological target: alpha V integrins (αvβ3 and αvβ5) on human cells (human) (UniProt P06756); assay: flow cytometry on M21 cells; labeled CNTO95 2 µg/mL; competitor VNR139 (anti-αv) 20 µg/mL
# [21] = biological target: alpha V integrins (αvβ3 and αvβ5) on human cells (human) (UniProt P06756); assay: flow cytometry on M21 cells; labeled CNTO95 2 µg/mL; competitor LM609 (anti-αvβ3) 20 µg/mL; parameters: % Positive: reference not given here
# [22] = biological target: alpha V integrins (αvβ3 and αvβ5) on human cells (human) (UniProt P06756); assay: flow cytometry on M21 cells; labeled CNTO95 20 µg/mL; competitor P1F6 (anti-αvβ5) 20 µg/mL
# [23] = biological target: alpha V integrins (αvβ3 and αvβ5) on human cells (human) (UniProt P06756); assay: flow cytometry on M21 cells; labeled CNTO95 20 µg/mL; competitor VNR139 (anti-αv) 20 µg/mL
# [24] = biological target: alpha V integrins (αvβ3 and αvβ5) on human cells (human) (UniProt P06756); assay: flow cytometry on M21 cells; labeled CNTO95 2 µg/mL; competitor anti-β3 (Chemicon) 20 µg/mL
# [25] = biological target: alpha V integrins (αvβ3 and αvβ5) on human cells (human) (UniProt P06756); assay: flow cytometry on M21 cells; labeled CNTO95 20 µg/mL; competitor LM609 (anti-αvβ3) 20 µg/mL
# [26] = biological target: alpha V integrins (αvβ3 and αvβ5) on human cells (human) (UniProt P06756); assay: flow cytometry on M21 cells; labeled CNTO95 20 µg/mL; competitor anti-β3 (Chemicon) 20 µg/mL
# Sequence of αvβ3 integrin on human cells (human) (P06756 31-1048, chain 1 of 2): as the sequence (P06756 31-1048, chain 1 of 2) above
# Sequence of αvβ3 integrin on human cells (human) (P05106 27-788, chain 2 of 2, further chain): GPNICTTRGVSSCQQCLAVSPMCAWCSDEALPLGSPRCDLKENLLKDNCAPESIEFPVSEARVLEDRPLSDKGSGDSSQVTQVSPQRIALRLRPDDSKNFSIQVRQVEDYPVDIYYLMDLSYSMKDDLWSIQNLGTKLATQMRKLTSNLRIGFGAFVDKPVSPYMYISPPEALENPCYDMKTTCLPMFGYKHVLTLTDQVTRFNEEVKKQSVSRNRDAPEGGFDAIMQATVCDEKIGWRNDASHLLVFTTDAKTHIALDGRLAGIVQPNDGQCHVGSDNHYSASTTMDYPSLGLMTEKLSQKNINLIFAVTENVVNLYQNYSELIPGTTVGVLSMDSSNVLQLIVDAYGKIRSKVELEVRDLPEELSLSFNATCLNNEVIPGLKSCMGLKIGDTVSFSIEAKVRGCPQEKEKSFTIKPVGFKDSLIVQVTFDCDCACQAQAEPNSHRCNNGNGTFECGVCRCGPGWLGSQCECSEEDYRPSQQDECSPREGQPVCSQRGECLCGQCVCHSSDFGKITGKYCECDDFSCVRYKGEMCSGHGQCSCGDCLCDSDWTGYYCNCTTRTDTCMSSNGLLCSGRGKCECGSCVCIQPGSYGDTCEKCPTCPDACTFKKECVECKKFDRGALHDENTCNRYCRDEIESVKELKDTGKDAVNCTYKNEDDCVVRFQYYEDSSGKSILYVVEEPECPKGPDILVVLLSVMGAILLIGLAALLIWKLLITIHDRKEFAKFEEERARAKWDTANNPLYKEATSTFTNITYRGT
substance,measurement,setting,value
"LM609 (murine anti-human αvβ3 antibody, Chemicon)","A375S.2 cell adhesion to fibrin, % of no-antibody control (10 µg/ml)",[1],50%
same,"A375S.2 cell adhesion to fibrinogen, % of no-antibody control (10 µg/ml)",[1],14%
same,"A375S.2 cell adhesion to fibronectin, % of no-antibody control (10 µg/ml)",[1],104%
same,"A375S.2 cell adhesion to gelatin, % of no-antibody control (10 µg/ml)",[1],25.2%
same,"A375S.2 cell adhesion to type I collagen, % of no-antibody control (10 µg/ml)",[1],100%
same,"A375S.2 cell adhesion to vitronectin, % of no-antibody control (10 µg/ml)",[1],42.1%
same,"HUVEC adhesion to fibrin, % of no-antibody control (10 µg/ml)",[1],48.1%
same,"HUVEC adhesion to fibrinogen, % of no-antibody control (10 µg/ml)",[1],14.3%
same,"HUVEC adhesion to fibronectin, % of no-antibody control (10 µg/ml)",[1],103%
same,"HUVEC adhesion to gelatin, % of no-antibody control (10 µg/ml)",[1],36.5%
same,"HUVEC adhesion to type I collagen, % of no-antibody control (10 µg/ml)",[1],109%
same,"HUVEC adhesion to vitronectin, % of no-antibody control (10 µg/ml)",[1],26.3%
same,Receptors per cell (receptors/cell),[2],300000
Human IgG (negative control) (antibody),"A375S.2 cell adhesion to fibrin, % of no-antibody control (10 µg/ml)",[3],99.5%
same,"A375S.2 cell adhesion to fibrinogen, % of no-antibody control (10 µg/ml)",[3],102%
same,"A375S.2 cell adhesion to fibronectin, % of no-antibody control (10 µg/ml)",[3],100%
same,"A375S.2 cell adhesion to gelatin, % of no-antibody control (10 µg/ml)",[3],94.6%
same,"A375S.2 cell adhesion to type I collagen, % of no-antibody control (10 µg/ml)",[3],99.1%
same,"A375S.2 cell adhesion to vitronectin, % of no-antibody control (10 µg/ml)",[3],104%
same,"HUVEC adhesion to fibrin, % of no-antibody control (10 µg/ml)",[3],99.7%
same,"HUVEC adhesion to fibrinogen, % of no-antibody control (10 µg/ml)",[3],108%
same,"HUVEC adhesion to fibronectin, % of no-antibody control (10 µg/ml)",[3],96.8%
same,"HUVEC adhesion to gelatin, % of no-antibody control (10 µg/ml)",[3],109%
same,"HUVEC adhesion to type I collagen, % of no-antibody control (10 µg/ml)",[3],99.3%
same,"HUVEC adhesion to vitronectin, % of no-antibody control (10 µg/ml)",[3],96.3%
P1F6 (murine anti-human αvβ5 antibody),"A375S.2 cell adhesion to fibrin, % of no-antibody control (10 µg/ml)",[4],92.9%
same,"A375S.2 cell adhesion to fibrinogen, % of no-antibody control (10 µg/ml)",[4],99.4%
same,"A375S.2 cell adhesion to fibronectin, % of no-antibody control (10 µg/ml)",[4],101%
same,"A375S.2 cell adhesion to gelatin, % of no-antibody control (10 µg/ml)",[4],87.4%
same,"A375S.2 cell adhesion to type I collagen, % of no-antibody control (10 µg/ml)",[4],101%
same,"A375S.2 cell adhesion to vitronectin, % of no-antibody control (10 µg/ml)",[4],28.5%
same,"HUVEC adhesion to fibrin, % of no-antibody control (10 µg/ml)",[4],96.7%
same,"HUVEC adhesion to fibrinogen, % of no-antibody control (10 µg/ml)",[4],94.5%
same,"HUVEC adhesion to fibronectin, % of no-antibody control (10 µg/ml)",[4],103%
same,"HUVEC adhesion to gelatin, % of no-antibody control (10 µg/ml)",[4],94.4%
same,"HUVEC adhesion to type I collagen, % of no-antibody control (10 µg/ml)",[4],116%
same,"HUVEC adhesion to vitronectin, % of no-antibody control (10 µg/ml)",[4],39.8%
same,Receptors per cell (receptors/cell),[5],44000
same,Receptors per cell (receptors/cell),[6],73000
same,Receptors per cell (receptors/cell),[7],70000
CNTO 95 (antibody),"A375S.2 cell adhesion to fibrin, % of no-antibody control (10 µg/ml)",[3],43.3%
same,"A375S.2 cell adhesion to fibrinogen, % of no-antibody control (10 µg/ml)",[3],11.4%
same,"A375S.2 cell adhesion to fibronectin, % of no-antibody control (10 µg/ml)",[3],103%
same,"A375S.2 cell adhesion to gelatin, % of no-antibody control (10 µg/ml)",[3],23.2%
same,"A375S.2 cell adhesion to type I collagen, % of no-antibody control (10 µg/ml)",[3],104%
same,"A375S.2 cell adhesion to vitronectin, % of no-antibody control (10 µg/ml)",[3],1.4%
same,"HUVEC adhesion to fibrin, % of no-antibody control (10 µg/ml)",[3],45.1%
same,"HUVEC adhesion to fibrinogen, % of no-antibody control (10 µg/ml)",[3],34.5%
same,"HUVEC adhesion to fibronectin, % of no-antibody control (10 µg/ml)",[3],102%
same,"HUVEC adhesion to gelatin, % of no-antibody control (10 µg/ml)",[3],54.8%
same,"HUVEC adhesion to type I collagen, % of no-antibody control (10 µg/ml)",[3],97.7%
same,"HUVEC adhesion to vitronectin, % of no-antibody control (10 µg/ml)",[3],3.3%
same,Kd,[8],8.5 nM
same,Receptors per cell (receptors/cell),[9],200000
same,Kd,[10],5.2 nM
same,Receptors per cell (receptors/cell),[11],120000
same,Kd,[12],7 nM
same,% Positive,[13],100%
same,MCF (Median Channel Fluorescence),[13],4.33
same,% Positive,[14],100%
same,MCF (Median Channel Fluorescence),[14],14.3
same,% Positive,[15],132%
same,MCF (Median Channel Fluorescence),[15],5.73
same,% Positive,[16],103%
same,MCF (Median Channel Fluorescence),[16],14.7
same,% Positive,[17],106%
same,MCF (Median Channel Fluorescence),[17],4.61
same,% Positive,[18],91%
same,MCF (Median Channel Fluorescence),[18],13.1
same,% Positive,[19],112%
same,MCF (Median Channel Fluorescence),[19],4.87
same,% Positive,[20],106%
same,MCF (Median Channel Fluorescence),[20],4.61
same,% Positive,[21],110%
same,MCF (Median Channel Fluorescence),[21],4.78
same,% Positive,[22],101%
same,MCF (Median Channel Fluorescence),[22],14.5
same,% Positive,[23],104%
same,MCF (Median Channel Fluorescence),[23],14.9
same,% Positive,[24],125%
same,MCF (Median Channel Fluorescence),[24],5.42
same,% Positive,[25],93%
same,MCF (Median Channel Fluorescence),[25],13.3
same,% Positive,[26],91%
same,MCF (Median Channel Fluorescence),[26],13.1
